In article PMC5494197, “Deregulation of mitochondrial F1FO-ATP synthase via OSCP in Alzheimer’s disease” (Nature Communications, 2016):

Target: T1, Aβ1–42 peptide (UniProt P05067 672-713)
T1 construct: amyloid beta 1-42, cut product of the amyloid beta precursor protein (APP); For neurons and isolated mitochondria the peptide was prepared as oligomeric Aβ (HFIP film, DMSO, HAM'S F-12, 4 °C for 24 h); for the pull-down the methods say only 'Aβ peptide'; also called amyloid beta; oligomeric Aβ1–42; source: synthetic peptide, bought: GenicBio
Experiment: pull-down; GST-tagged OSCP on glutathione agarose as bait, incubated overnight at 4 °C with Aβ peptide; immunoblotting or coomassie staining
Details: both partners purified

binding result: binds
B1: GST-tagged OSCP (oligomycin sensitivity conferring protein), wild type (natural protein, human, UniProt P48047 24-213, looked up)
chain: FAKLVRPPVQVYGIEGRYATALYSAASKQNKLEQVEKELLRVAQILKEPKVAASVLNPYVKRSIKVKSLNDITAKERFSPLTTNLINLLAENGRLSNTQGVVSAFSTMMSVHRGEVPCTVTSASPLEEATLSELKTVLKSFLSQGQVLKLEAKTDPSILGGMIVRIGEKYVDMSVKTKIQKLGRAMREIV
notes: oligomycin sensitivity conferring protein (OSCP) subunit of mitochondrial F1FO-ATP synthase, human cDNA (Gene Name ATP5O, NCBI Gene ID 539) in pGEX-4t-1; it may tell the limits of the construct; also called GST-OSCP; wild-type OSCP
